Our source for the protein stability index values is the supplement of paper PMC10567573.

± gives the standard deviation.

The data set can be described thus: protein stability index of a GFP-peptide fusion (GPS, HEK-293T) (PSI 1-6); higher = more stable.
Setting [1] is: treatment: DMSO, c terminus: a fixed tail appended.
Setting [2] is: treatment: MLN4924 1 uM, 8 h, c terminus: a fixed tail appended.
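Note: 24-mer peptide tiles fused after GFP, lentivirally expressed, FACS-sorted into six equal bins by GFP/DsRed ratio, decoded by Illumina sequencing, PSI is the read-weighted mean bin number.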

As to VLPCIQQIQRISLNTLTLNVKSEK [FLOT1], the protein stability index runs as follows: under setting [1], 2.84 ± 0.14; under setting [2], 2.98 ± 0.24.
For the sequence VLQALFYLLDRAVDSFETQRNGLV [PTPN9], the protein stability index by setting is: under setting [1], 2.45 ± 0.98; under setting [2], 2.66 ± 0.62.
Turning to VLRAEHRGFQEENKALWENNKLKL [CBY2], the protein stability index under setting [1] is 3.83 ± 0.45 and the protein stability index under setting [2] worked out at 3.89 ± 0.28.
In the same order, the values of VLSSTPDHSFSLELGSEVDITEGD [ATF4] are 5.32 ± 0.43 and 5.44 ± 0.11.
In the same order, the values of VNKITFSEQCYYIFGDLCGNMANL [DVL3] are 2.66 ± 0.38 and 2.36 ± 0.37.
With VNPWKREVKLLLSSETPIEGKNMS [APMAP], the protein stability index by setting is: under setting [1], 3.44 ± 0.25; under setting [2], 3.62 ± 0.42.
With VNRTTRTNSTPLRAACFDGHLEVV [FEM1A], the protein stability index was 2.9 ± 0.35 under setting [1] and 2.74 ± 0.34 under setting [2].
In the same order, the values of VPLCSCRMETPKSREITTLANNQC [EHMT1] are 2.62 ± 0.17 and 2.81 ± 0.24.
Take VPNAKKLRRKEQLWEKLAKQGELP [NOP53]: the protein stability index reads like this: under setting [1], 3.35 ± 0.33; under setting [2], 3.51 ± 0.39.
VPSESEPPALQNNLLSPLLTGTES [NFE2L1]: the protein stability index by setting is: under setting [1], 4.92 ± 0.1; under setting [2], 5.07 ± 0.18.
As to VQARMLSSTTILVQWKEPEEPNGQ [PTPRD], the protein stability index is 3.27 ± 0.34 under setting [1] and 3.19 ± 0.35 under setting [2].
In the case of VQITGQPNILFYASTVLKSVGFQS [SLC2A12], the protein stability index is, setting by setting: under setting [1], 3.12 ± 0.57; under setting [2], 2.58 ± 0.45.
The like results for VQKEHEEYMKNLLKVGGILVMPLE [PCMTD2] were, in that order, 2.69 ± 0.21 and 2.7 ± 0.17.
On to VQKNILAAASPYIRTKLNYNPPKD [GAN], for which the protein stability index was 2.97 ± 0.34 under setting [1] and 3.24 ± 0.38 under setting [2].
As for VQREKDLPNYNWNSFGLRFGKREA [KISS1], the protein stability index was 3.28 ± 0.12 under setting [1] and 3.19 ± 0.18 under setting [2].
Turning to VRTSYQPSSPGRFTKETTQKNFNN [TRIM29], the protein stability index was determined as 3.93 ± 0.15 under setting [1] and 3.88 ± 0.22 under setting [2].
For the sequence VSDSLTWREFHYIQSKLGIVSLLL [STEAP1], the protein stability index runs as follows: under setting [1], 2.45 ± 0.54; under setting [2], 2.18 ± 0.25.
The like results for VSLTSPSAPPTSRTSSGNVWVTHE [PPFIA4] were, in that order, 3.35 ± 0.21 and 3.47 ± 0.32.
As to VSSSVIEQLFFVRLVGKTPIETLI [NR2F2], the protein stability index came to 2.74 ± 0.58 under setting [1] and 3.05 ± 0.37 under setting [2].
For VSTGSTDNSPTSNSLEGGTDATAF [ADAMTSL2], the protein stability index is, setting by setting: under setting [1], 4.97 ± 0.28; under setting [2], 5.31 ± 0.28.
Regarding VTTRQVRTIVEEVQDGKVISSREQ [KRT17], the protein stability index is 4.87 ± 0.3 under setting [1] and 4.87 ± 0.36 under setting [2].
VVAILAAACLLQLDGLIQQCGETM [GMCL1]: the protein stability index turned out to be 3.23 ± 0.42 under setting [1] and 2.92 ± 0.39 under setting [2].
Take WELGGGTSLLDLISIPITGDTLRT [DYNC2LI1]: the protein stability index by setting is: under setting [1], 2.22 ± 0.32; under setting [2], 2.36 ± 0.22.
For WEVQVSPTCPVCKDRASPADLRTN [TRIM35], the protein stability index was 3.2 ± 0.43 under setting [1] and 3.61 ± 0.27 under setting [2].
On to WEYPGSQGSPAVDKERFTTLVQDL [CHIT1], for which the protein stability index reads like this: under setting [1], 3.9 ± 0.25; under setting [2], 3.89 ± 0.19.
The sequence WGKRKNKPKMNYEKLSRGLRYYYD [ETS2] displayed a protein stability index under setting [1] of 2.52 ± 0.26 and a protein stability index under setting [2] of 2.51 ± 0.43.
As for WLYCYDPVMDVWARKQDMNTKRAI [KLHL14], the protein stability index is, setting by setting: under setting [1], 2.07 ± 0.28; under setting [2], 2.53 ± 0.55.
The like results for WMPPPSRADSFKVSYQLADGGEPQ [TNXB] were, in that order, 4.03 ± 0.44 and 4.23 ± 0.64.
For WSVTGKAEPAMPGRLYVHPDSPAT [TBX5], the protein stability index is, setting by setting: under setting [1], 3.67 ± 0.17; under setting [2], 3.62 ± 0.22.
Regarding WTRITCAEEGWSPTPKCLRLCFFP [CFHR2], the protein stability index is, setting by setting: under setting [1], 2.82 ± 0.71; under setting [2], 2.6 ± 0.46.
With WYLKEEDHYQRVKREREKEDIALN [RHOBTB1], the protein stability index under setting [1] is 3.94 ± 0.18 and the protein stability index under setting [2] is 3.955 ± 0.027.
Regarding WYQVRCLFQSPLFAKAGDTLSGTC [CARM1], the protein stability index reads like this: under setting [1], 2.77 ± 0.72; under setting [2], 2.35 ± 0.53.
The like results for WYSPYAKTLQPTKQPNCSSLFKLK [PLD5] were, in that order, 2.32 ± 0.21 and 2.79 ± 0.21.
In the same order, the values of YAPVGFCLLVLRLFLGIHVFLVSC [AUP1] are 3.14 ± 1 and 2.88 ± 0.35.
The sequence YCLLSDHGCEYSCVNMDRSFACQC [MATN2] yielded a protein stability index under setting [1] of 2.81 ± 0.54 and a protein stability index under setting [2] of 2.95 ± 0.59.
As for YETKKHLVQLPNINRVSTCYSEEI [PPEF2], the protein stability index came to 3.33 ± 0.32 under setting [1] and 3.23 ± 0.53 under setting [2].
As for YFTKSGFHPDPRQKALYRRLATVH [CLPTM1], the protein stability index runs as follows: under setting [1], 2.12 ± 0.41; under setting [2], 2.35 ± 0.22.
YFYMSCLVKHKRIHSREKRGDSVK [ZNF649] registered a protein stability index under setting [1] of 1.73 ± 0.16 and a protein stability index under setting [2] of 2.38 ± 0.55.
YGDWTSGENSDGCYEHFAELDIPQ [CLPTM1]: the protein stability index runs as follows: under setting [1], 4.54 ± 0.23; under setting [2], 4.63 ± 0.26.
The like results for YGLRGPHKADSIQGTARTLSPVLE [TNXB] were, in that order, 3.93 ± 0.36 and 3.84 ± 0.14.
The like results for YIKVDWQRVEKDMKKAKEQLKIRK [FUNDC2] were, in that order, 2.46 ± 0.61 and 2.94 ± 0.74.
Regarding YIPSYTSWYPSAHQEAMQQPQLM [DLX1], the protein stability index worked out at 2.63 ± 0.36 (treatment: DMSO, c terminus: native) and 2.44 ± 0.26 (treatment: MLN4924 1 uM, 8 h, c terminus: native).
As to YLWMCSTLALLLNFLACLASFCVE [SCAMP3], the protein stability index is, setting by setting: under setting [1], 3.53 ± 0.36; under setting [2], 3.02 ± 0.12.
For the sequence YMSINTHLGKEQSRRDDLEALGHM [CSNK1G1], the protein stability index came to 3.28 ± 0.19 under setting [1] and 3.74 ± 0.29 under setting [2].
As for YNNQSLGHGSHSFIYYENMLLGVP [PKD2L1], the protein stability index under setting [1] amounted to 2.16 ± 0.21 and the protein stability index under setting [2] is 2.23 ± 0.37.
In the same order, the values of YQRFRQKSKASFLLLASGLVITDF [PTGFR] are 2.65 ± 0.21 and 2.49 ± 0.7.
Regarding YSEYPECCVDVKPISQEKIESERA [DUSP5], the protein stability index by setting is: under setting [1], 4.57 ± 0.39; under setting [2], 4.69 ± 0.66.
As for YVEIRTFEPRLLVQSIELQRPRFI [VPS39], the protein stability index is, setting by setting: under setting [1], 2.33 ± 0.76; under setting [2], 2.65 ± 0.7.
Take YVLEFSDHPGIHEPLEPEVKYVGN [CPN1]: the protein stability index is, setting by setting: under setting [1], 3.17 ± 0.27; under setting [2], 3.3 ± 0.1.
